Test: soluble on expression in E. coli; label from the status in PepcDB or PDB records
In the case of “MGSDKIHHHHHHMIDEHHIDALTKLLGDKGVVTRREDMEAYEAGARYDRGRAAAVLRPVTTEEVSAAVGYCVRSGIALIPQSGNTGLVSGSTPDESGSEVVVSLDRLTRQFALDLDNRSVRVDAGFRLSELNRRLEEHGLFFPIDLGADPRIGGMIATNTGGSRFLKYGDVRRNTLGLKVVLADEAGTVLDLGSDLRKNNTGVDWKQIFIGTSGAFGIVTECVLNLERLPKQTATAFLVPASGAHVLPLLKAMEERLGAYLSAFEGMSRNAIAAAFAHVPALKNPFQGGKVPDYVILAEISRTSSPREGEQPLDAVLESVLAEIWEMEEVLLADALVGPPHEIWALRHALSEGVKHLGKLIAFDLSFRRGDIMAFCDHMKTEMPEKFPGVTVCDFGHIGDGGVHFNLVVAKDSPLLADATFEQRLREWVFAVAVEQYHGSFSAEHALGRRNQAFYDLYTPEKLKNMAAGLKTLTSPGKLGSVRFG”, the “soluble on expression in E. coli” value is reported as “not soluble”.
In the case of “AAIYHLDVSGQATIRFRPPAFLKTLVSEHAGTTRLNTLSMIHHDDRHMLSNAYSKLREAKHSLTLVYRIVTPEGKLHWIEDHMRSSFSDD”, the “soluble on expression in E. coli” value is reported as “not soluble”.
In the case of “MSLRFITPEKRTIEELRFPTREAADNAVKKIADGLSFDDLVKAENKTLNDIKKGPFTENELPSYLSSEIFELKQGQISAVINDLQGPVIIRVTDITPAGPIPFEKVEDNIRQTLAQNRAADDIRNSYTEIENARFEGASEGHHHHHH”, the “soluble on expression in E. coli” value is reported as “soluble”.
In the case of “MDPLSRDENYIQRLTPEMWREIKAASPEVTAEMLDDLKHGNTYYTGVETDKGVLIFSRDIIGEGQFSDYMYKYIENDFFASEFVLKSLAVHELRGWPSLMEGKLNRCHNRFGWWGDGETIRRAFQDRSVLKNVTDSETYDFTPPPHGRTITG”, the “soluble on expression in E. coli” value is reported as “not soluble”.
In the case of “KKPLSVFKGPLLHISPAEELYFGSIESGEKKTLIVLTNVTKNIVAFKVRTTAPEKYRVKPSNSSCDPGASIDIIVSPHGGLTVSAQDRFLIMAAEMEQSSGTGPAELSQFWKEVPRNKVMEHRLRCHTVESSKPNSLML”, the “soluble on expression in E. coli” value is reported as “soluble”.
With “MGSSHHHHHHMRVDGREKTELRHIHIHTNYLKHPEGSVLIEVGDTKVICSATIEERVPPFMRGEGKGWVTAEYAMIPRATEQRTIRESSKGKVTGRTMEIQRLIGRALRAVVDLEALGERTVWIDCDVIQADGGTRTASITGAYVAMVLAFEKLLQAEKVSKIPVKDYLAATSVGIVEEQGVVLDLNYAEDSKADVDMNVIMTGKGQFVEVQGTGEEATFSRAQLNELLDAAEQGIFQLIDIQKEALGDIVSHIE” the “soluble on expression in E. coli” value was “soluble”.
With “MTTETIQSNANLAPLPPHVPEHLVFDFDMYNPSNLSAGVQEAWAVLQESNVPDLVWTRCNGGHWIATRGQLIREAYEDYRHFSSECPFIPREAGEAYDFIPTSMDPPEQRQFRALANQVVGMPVVDKLENRIQELACSLIESLRPQGQCNFTEDYAEPFPIRIFMLLAGLPEEDIPHLKYLTDQMTRPDGSMTFAEAKEALYDYLIPIIEQRRQKPGTDAISIVANGQVNGRPITSDEAKRMCGLLLVGGLDTVVNFLSFSMEFLAKSPEHRQELIERPERIPAACEELLRRFSLVADGRILTSDYEFHGVQLKKGDQILLPQMLSGLDERENACPMHVDFSRQKVSHTTFGHGSHLCLGQHLARREIIVTLKEWLTRIPDFSIAPGAQIQHKSGIVSGVQALPLVWDPATTKAVHHHHHH” the “soluble on expression in E. coli” value was “soluble”.
For “MRAPGVRAADGAGRVVLYLHGGAFVMCGPNSHSRIVNALSGFAESPVLIVDYRLIPKHSLGMALDDCHDAYQWLRARGYRPEQIVLAGDSAGGYLALALAQRLQCDDEKPAAIVAISPLLQLAKGPKQDHPNIGTDAMFPARAFDALAAWVRAAAAKNMVDGRPEDLYEPLDHIESSLPPTLIHVSGSEVLLHDAQLGAGKLAAAGVCAEVRVWPGQAHLFQLATPLVPEATRSLRQIGQFIRDATADSSLSPVHRSRYVAGSPRAASRGAFGQSPI”, the “soluble on expression in E. coli” value was “soluble”.
With “MKKKLTGVALVLAAVSLMGIQPAGACTRAVYLGPDRMVVTGRTMDWKEDIMSNIYVFPRGMQRAGHNKEKTVNWTSKYGSVIATGYDIGTCDGMNEKGLVASLLFLPESVYSLPGDTRPAMGISIWTQYVLDNFATVREAVDEMKKETFRIDAPRMPNGGPESTLHMAITDETGNTAVIEYLDGKLSIHEGKEYQVMTNSPRYELQLAVNDYWKEVGGLQMLPGTNRSSDRFVRASFYIHAIPQTADAKIAVPSVLSVMRNVSVPFGINTPEKPHISSTRWRSVSDQKNKVYYFESTLTPNLFWLDLKKIDFSPKAGVKKLSLTKGEIYAGDAVKDLKDSQSFTFLFETPVM” the “soluble on expression in E. coli” value was “soluble”.
In the case of “MNSDDEIYMEGSASSEDDMDDECLSDDDGIARHDQSASDYLNKKDKDNEVLDHDSLEAEMKKAISEVEAVLQVKTGVCRILLHKYKWNKESLLERFYEHPDTIAFLIDAQVIPRQQEVIPAGDAECDICCSMDELSGLSCNHRACAECWQAYLTNKIVSDAQSEIECMAPNCKLLIEDEKVLSYISDPTMVSKYRKLMVASYVEINCLLRWCPGIDCGKAVKVSHWEPRLVVCSCGTCFCFSCGQNWHEPLNCRHLKKWIKKCQDDSETMNWINANTKDCPKCMIPIEKNGGCNRMLCTNSGCRYEFCWMCLEPWTKHGYQYACNGYDETAVKNPQDAQEISRANLKRYLFYFNRYMGHEQSLQLEGKLNIKVAKKMEQMENMSMSWIEVQFLRKAVDILSECRRTLMYTYAFAFYLKKDNNSIIFESNQANLEMETEQLSGFLERDLEDEDLVTLKQKVQDKYRYVEQRRKVLLDHCAEGAEQDIWQYND”, the “soluble on expression in E. coli” value is reported as “not soluble”.
For “MSEPSEKKQKVATSSLEQLKKAGTHVVADSGDFEAISKYEPQDSTTNPSLILAASKLEKYARFIDAAVEYGRKHGKTDHEKIENAMDKILVEFGTQILKVVPGRVSTEVDARLSFDKKATVKKALHIIKLYKDAGVPKERVLIKIASTWEGIQAARELEVKHGIHCNMTLLFSFTQAVACAEANVTLISPFVGRIMDFYKALSGKDYTAETDPGVLSVKKIYSYYKRHGYATEVMAASFRNLDELKALAGIDNMTLPLNLLEQLYESTDPIENKLNSESAKEEGVEKVSFINDEPHFRYVLNEDQMATEKLSDGIRKFSADIEALYKLVEEKMLEHHHH”, the “soluble on expression in E. coli” value was “soluble”.
In the case of “MKLIITEDYQEMSRVAAHHLLGYMSKTRRVNLAITAGSTPKGMYEYLTTLVKGKPWYDNCYFYNFDEIPFRGKEGEGVTITNLRNLFFTPAGIKEENIQKLTIDNYREHDQKLAREGGLDLVVLGLGADGHFCGNLPNTTHFHEQTVEFPIQGEMVDIVAHGELGGDFSLVPDSYVTMGPKSIMAAKNLLIIVSGAGKAQALKNVLQGPVTEDVPASVLQLHPSLMVIADKAAAAELAFG”, the “soluble on expression in E. coli” value is reported as “soluble”.
For “MSENHVPAWKRIALKRQTISSGDESKEKGQSNLIDDDPLNITTHLSTGNLTKKEKKRIINGESKSSTKKGKRVSKPGTKKKEKLSKDEKNSKKNKILKDQLRYLIEFFRTKSESKFPTGILELESVKENYGDSLIKDEPSESGVVEVWKFSKQKQNWLIKHFFNLDEIPSVYNDLLLLYFRDLQGKSKEELISKCKGKLKQWNDYVEDQETKIKALIAEDKASEPINGEEKEEGEKDGNAEQGKQKEVQDEQEEVQMPNKELVQRSLKLLEIWKNDDSEQIELKNFFVDV”, the “soluble on expression in E. coli” value was “soluble”.
With “MGSDKIHHHHHHMFDPESLKKLAIEIVKKSIEAVFPDRAVKETLPKLNLDRVILVAVGKAAWRMAKAAYEVLGKKIRKGVVVTKYGHSEGPIDDFEIYEAGHPVPDENTIKTTRRVLELVDQLNENDTVLFLLSGGGSSLFELPLEGVSLEEIQKLTSALLKSGASIEEINTVRKHLSQVKGGRFAERVFPAKVVALVLSDVLGDRLDVIASGPAWPDSSTSEDALKVLEKYGIETSESVKRAILQETPKHLSNVEIHLIGNVQKVCDEAKSLAKEKGFNAEIITTSLDCEAREAGRFIASIMKEVKFKDRPLKKPAALIFGGETVVHVKGNGIGGRNQELALSAAIALEGIEGVILCSAGTDGTDGPTDAAGGIVDGSTAKTLKAMGEDPYQYLKNNDSYNALKKSGALLITGPTGTNVNDLIIGLIV” the “soluble on expression in E. coli” value was “soluble”.
With “MGSDKIHHHHHHACSSEEGGSQAMGGKGAVILDLAAETVFDTKTKAVDESTYLTDRPLADYKVKILDAQGHVVSGCEWKYSERPTGLIELSNGSYTVVASDGEEFNVNASTRNGIYMYGSSRFDVNSDKVAAVNVACKPACGKLVVKFGDTMATYFSDYAVHFSTQAAGENGSIIWPKGDTDPLYVKLAEAGENVTATFQFTKKADGTNAEVNTLTREMKWGSMWTITVNPKVEDTTGKVGITITFDDSTNDKPIDIEIPSDWL” the “soluble on expression in E. coli” value was “not soluble”.
With “PDGQDLAEARQRLDDSLEQAHQQHKALYERLMAYKTQPRMKTWLNELVWAHNQALWDAPTKVLAQGEPDPHLLLTTQLAPELLNTRKELMLISAYFVPGQEGLLYLTGRADAGVNVSLLTNSLEATDVPAVHGGYAPYRKALLEHGVKLYELRRQPGETETMRSSGPHLFRKSHSLVSSESSLHSKAMIFDRQKVFVGSFNFDPRSVLWNTEVGVLVDSPQLAEELRELTLQGMAPSLTYEARLEDGKVVWVTE” the “soluble on expression in E. coli” value was “soluble”.
With “AIREFNTKEKVFNEFTAVFDVLNHLPAFAKLHLANSMSVRYANTLGISQRNAEVFANRGTSGIDGVISTAYGYALKTSQLVTIITGDLAFFYDRNAFWNNYKPSNLRVVLLNNHGGGIFRMIDGPSALPELDELFETKQTLSARYLATEHGLEYTLCKNLNGLNQALESFFQPSMFGKILEIETDSVKN” the “soluble on expression in E. coli” value was “not soluble”.
For “SLLNVPAGKDLPEDIYVVIEIPANADPIKYEIDKESGALFVDRFMSTAMFYPCNYGYINHTLSLDGDPVDVLVPTPYPLQPGSVTRCRPVGVLKMTDEAGEDAKLVAVPHSKLSKEYDHIKDVNDLPELLKAQIAHFFEHYKDLEKGKWVKVEGWENAEAAKAEIVASFERAKNK”, the “soluble on expression in E. coli” value was “soluble”.
In the case of “MSLGNKSEAYEQYIQQIKEENGINNFFDRYPYLLKQINREVRLIEESYSLLFDRFLKDLSELRSCFNITEPLSNVEFSLGDSHSQKQTVVKIEFKGKSIYYKPKSYDSYNILLELISLLKSNNIPSFSLPESLIKADYCWQLGVDYINSNNDEVKRIYFKYGVLAAFSEIFSITDLHMENVIVSGGDLYLIDVETFFQRKLNVQTNNFEGITVDTYQRIYETSLSNGLFPVQFEKNSAPNISGISGKGGKRKKGKYELINKNRGDMKLVKTDYFQEDSYNIPTLNEKMVEPLDYANEVIAGFRECYTFLMTQRAKVKKILYGFPKLRTRAIFRNTSDYGKFLQASTNPKYLFSEKKRENLFSILYESKHIEQFIVDSEIKDLMNGDIPYFSMDPNGNVYNSLGTVIGNLGKTTSLFDNIATLNDERMKFTCELIGIVLKKPIKHWERKDGKSYYFPSISSKQSFNEEILRQREGHHHHHH”, the “soluble on expression in E. coli” value is reported as “not soluble”.
With “MSLYHDGPIEVLPGVWLGAEESVGRWDIWAGNTAGNTVRVVNVAQEVEDPFDAAGPGRVSGWPRPSALPAETAKRRMKLRTYPAVVGDGTRPHVEYCHARWSHGELGLADLPADACLGDVLYPRAPENNEGLWRFWETIRWMEEGRQGGTPILIHSQCGVSRSATLAIAYTMALAAAGAMPQYLGHIRVMQDAYDFVKGKSCWIGPNHSLVFQLVDFARNLTTLLSEGHHHHHH” the “soluble on expression in E. coli” value was “soluble”.
In the case of “DKLTRQPFFIKLINYLQIHDDVTLRQIKRNFADTEHLERSIEDYVQAGYVLRENKHYYNAFELLENLDGLTLDSQIFVDDQSSIYQDLLALTFETYLSNQTNAALIIEKTDISRDALTLSNYFFKLNENFPLSRKQKPLYHLLGDVNPNYALKYMTTFLLKFWGKDVVKQKRPDIFVQALVLLGYLEQVGKQSYCLKMTFDKEKLIFAS”, the “soluble on expression in E. coli” value is reported as “soluble”.
In the case of “MGHHHHHHSHMTLKSSGRISDVFLCRHEKIFHPNKGYIYVVKVMRENTHEATYIQRTFEEFQELHNKLRLLFPSSHLPSFPSRFVIGRSRGEAVAERRREELNGYIWHLIHAPPEVAECDLVYTFFHPLPRDEKAMGTSPAPKSSDGTWARPVGKVGGEVKLSISYKNNKLFIMVMHIRGLQLLQDGNDPDPYVKIYLLPDPQKTTKRKTKVARKTCNPTYNEMLVYDGIPKGDLQQRELQLSVLSEQGFWENVLLGEVNIRLRELDLAQEKTGWFALGSRSHGTL”, the “soluble on expression in E. coli” value is reported as “not soluble”.
